Assay results as given in publication PMC6606445 (Nature structural & molecular biology, 2018).

Tests used:
[1] = biological target: SYCP1 αN-end (101-206) (human) (UniProt Q15431); assay: crystal structure
RecE-αN-tetramer = RecE-αN-tetramer (UniProt Q15431); assay: SEC-MALS
[2] = biological target: truncated SYCP1 αN-end (101-175) (human) (UniProt Q15431); assay: crystal structure
SEC-MALS [3] = biological target: the molecule itself; assay: SEC-MALS
crystal structure = biological target: the molecule itself; assay: crystal structure
SEC-MALS [4] = biological target: the molecule itself; assay: SEC-MALS; remark: listed apart in the source

With “SYCP1 αN-end (101-206) (from UniProt Q15431 101-206) (domain or fragment)” the stoichiometry N [1] was 4.

“RecE-αN-tetramer (from UniProt Q15431 206-362)” was tested, and the stoichiometry N (RecE-αN-tetramer) was 4.

“truncated SYCP1 αN-end (101-175) (from UniProt Q15431 101-175) (domain or fragment)” showed a stoichiometry N [2] of 4.

B1: SYCP1 αN (101-362) (domain or fragment)
chain: GLSRVYSKLYKEAEKIKKWKVSTEAELRQKESKLQENRKIIEAQRKAIQELQFGNEKVSLKLEEGIQENKDLIKENNATRHLCNLLKETCARSAEKTKKYEYEREETRQVYMDLNNNIEKMITAFEELRVQAENSRLEMHFKLKEDYEKIQHLEQEYKKEINDKEKQVSLLLIQITEKENKMKDLTFLLEESRDKVNQLEEKTKLQSENLKQSIEKQHHLTKELEDIKVSLQRSVSTQKALEEDLQIATKTICQLTEEKETQ
B1: binds (SEC-MALS [3]).

B2: SYCP1 αCore (101-783) (domain or fragment)
chain: GLSRVYSKLYKEAEKIKKWKVSTEAELRQKESKLQENRKIIEAQRKAIQELQFGNEKVSLKLEEGIQENKDLIKENNATRHLCNLLKETCARSAEKTKKYEYEREETRQVYMDLNNNIEKMITAFEELRVQAENSRLEMHFKLKEDYEKIQHLEQEYKKEINDKEKQVSLLLIQITEKENKMKDLTFLLEESRDKVNQLEEKTKLQSENLKQSIEKQHHLTKELEDIKVSLQRSVSTQKALEEDLQIATKTICQLTEEKETQMEESNKARAAHSFVVTEFETTVCSLEELLRTEQQRLEKNEDQLKILTMELQKKSSELEEMTKLTNNKEVELEELKKVLGEKETLLYENKQFEKIAEELKGTEQELIGLLQAREKEVHDLEIQLTAITTSEQYYSKEVKDLKTELENEKLKNTELTSHCNKLSLENKELTQETSDMTLELKNQQEDINNNKKQEERMLKQIENLQETETQLRNELEYVREELKQKRDEVKCKLDKSEENCNNLRKQVENKNKYIEELQQENKALKKKGTAESKQLNVYEIKVNKLELELESAKQKFGEITDTYQKEIEDKKISEENLLEEVEKAKVIADEAVKLQKEIDKRCQHKIAEMVALMEKHKHQYDKIIEERDSELGLYKSKEQEQSSLRASLEIELSNLKAELLSVKKQLEIEREEKEKLKREAKE
B2: binds (SEC-MALS [3]).

B3: SYCP1 αC-end (676-770) (domain or fragment)
chain: ENLLEEVEKAKVIADEAVKLQKEIDKRCQHKIAEMVALMEKHKHQYDKIIEERDSELGLYKSKEQEQSSLRASLEIELSNLKAELLSVKKQLEIE
For B3, the “stoichiometry N” value (crystal structure) was 4.

B4: SYCP1 αC-end extended (676-783) L679A I688A (domain or fragment)
chain: ENLAEEVEKAKVAADEAVKLQKEIDKRCQHKIAEMVALMEKHKHQYDKIIEERDSELGLYKSKEQEQSSLRASLEIELSNLKAELLSVKKQLEIEREEKEKLKREAKE
B4 was tested, and the “stoichiometry N” value (SEC-MALS [4]) was 2.

B5: SYCP1 αN-tetramer (206-362) (domain or fragment)
chain: ETRQVYMDLNNNIEKMITAFEELRVQAENSRLEMHFKLKEDYEKIQHLEQEYKKEINDKEKQVSLLLIQITEKENKMKDLTFLLEESRDKVNQLEEKTKLQSENLKQSIEKQHHLTKELEDIKVSLQRSVSTQKALEEDLQIATKTICQLTEEKETQ
For B5, the “stoichiometry N” value (SEC-MALS [3]) was 4.

B6: SYCP1 αCore-ΔNtip (112-783) (domain or fragment)
chain: EAEKIKKWKVSTEAELRQKESKLQENRKIIEAQRKAIQELQFGNEKVSLKLEEGIQENKDLIKENNATRHLCNLLKETCARSAEKTKKYEYEREETRQVYMDLNNNIEKMITAFEELRVQAENSRLEMHFKLKEDYEKIQHLEQEYKKEINDKEKQVSLLLIQITEKENKMKDLTFLLEESRDKVNQLEEKTKLQSENLKQSIEKQHHLTKELEDIKVSLQRSVSTQKALEEDLQIATKTICQLTEEKETQMEESNKARAAHSFVVTEFETTVCSLEELLRTEQQRLEKNEDQLKILTMELQKKSSELEEMTKLTNNKEVELEELKKVLGEKETLLYENKQFEKIAEELKGTEQELIGLLQAREKEVHDLEIQLTAITTSEQYYSKEVKDLKTELENEKLKNTELTSHCNKLSLENKELTQETSDMTLELKNQQEDINNNKKQEERMLKQIENLQETETQLRNELEYVREELKQKRDEVKCKLDKSEENCNNLRKQVENKNKYIEELQQENKALKKKGTAESKQLNVYEIKVNKLELELESAKQKFGEITDTYQKEIEDKKISEENLLEEVEKAKVIADEAVKLQKEIDKRCQHKIAEMVALMEKHKHQYDKIIEERDSELGLYKSKEQEQSSLRASLEIELSNLKAELLSVKKQLEIEREEKEKLKREAKE
With B6 the “stoichiometry N” value (SEC-MALS [3]) was 4.

B7: GST-αC-dimer (domain or fragment)
chain: EKETQMEESNKARAAHSFVVTEFETTVCSLEELLRTEQQRLEKNEDQLKILTMELQKKSSELEEMTKLTNNKEVELEELKKVLGEKETLLYENKQFEKIAEELKGTEQELIGLLQAREKEVHDLEIQLTAITTSEQYYSKEVKDLKTELENEKLKNTELTSHCNKLSLENKELTQETSDMTLELKNQQEDINNNKKQEERMLKQIENLQETETQLRNELEYVREELKQKRDEVKCKLDKSEENCNNLRKQVENKNKYIEELQQENKALKKKGTAESKQLNVYEIKVNKLELELESAKQKFGEITDTYQKEIEDKKISEENLLEEVEKAKVIADEAVKLQKEIDKRCQHKIAEMVALMEKHKHQYDKIIEERDSELGLYKSKEQEQSSLRASLEIELSNLKAELLSVKKQLEIEREEKEKLKREAKE
With B7 the “stoichiometry N” value (SEC-MALS [3]) was 2.

B8: SYCP1 αC-dimer (358-783) (domain or fragment)
chain: B7 chain
With B8 the “stoichiometry N” value (SEC-MALS [3]) was 2.
